This passage reports protein production results from a protein production outcome set (Wang et al. 2014).

The nature of the data set: label from the status in PepcDB records.
For the sequence “MDAKARNCLLQHREALEKDIKTSYIMDHMISDGFLTISEEEKVRNEPTQQQRAAMLIKMILKKDNDSYVSFYNALLHEGYKDLAALLHDGIPVVSSSSGKDSVSGITSYVRTVLCEGGVPQRPVVFVTRKKLVNAIQQKLSKLKGEPGWVTIHGMAGCGKSVLAAEAVRDHSLLEGCFPGGVHWVSVGKQDKSGLLMKLQNLCTRLDQDESFSQRLPLNIEEAKDRLRILMLRKHPRSLLILDDVWDSWVLKAFDSQCQILLTTRDKSVTDSVMGPKYVVPVESSLGKEKGLEILSLFVNMKKADLPEQAHSIIKECKGSPLVVSLIGALLRDFPNRWEYYLKQLQNKQFKRIRKSSSYDYEALDEAMSISVEMLREDIKDYYTDLSILQKDVKVPTKVLCILWDMETEEVEDILQEFVNKSLLFCDRNGKSFRYYLHDLQVDFLTEKNCSQLQDLHKKIITQFQRYHQPHTLSPDQEDCMYWYNFLAYHMASAKMHKELCALMFSLDWIKAKTELVGPAHLIHEFVEYRHILDEKDCAVSENFQEFLSLNGHLLGRQPFPNIVQLGLCEPETSEVYQQAKLQAKQEVDNGMLYLEWINKKNITNLSRLVVRPHTDAVYHACFSEDGQRIASCGADKTLQVFKAETGEKLLEIKAHEDEVLCCAFSTDDRFIATCSVDKKVKIWNSMTGELVHTYDEHSEQVNCCHFTNSSHHLLLATGSSDCFLKLWDLNQKECRNTMFGHTNSVNHCRFSPDDKLLASCSADGTLKLWDATSANERKSINVKQFFLNLEDPQEDMEVIVKCCSWSADGARIMVAAKNKIFLFDIHTSGLLGEIHTGHHSTIQYCDFSPQNHLAVVALSQYCVELWNTDSRSKVADCRGHLSWVHGVMFSPDGSSFLTSSDDQTIRLWETKKVCKNSAVMLKQEVDVVFQENEVMVLAVDHIRRLQLINGRTGQIDYLTEAQVSCCCLSPHLQYIAFGDENGAIEILELVNNRIFQSRFQHKKTVWHIQFTADEKTLISSSDDAEIQVWNWQLDKCIFLRGHQETVKDFRLLKNSRLLSWSFDGTVKVWNIITGNKEKDFVCHQGTVLSCDISHDATKFSSTSADKTAKIWSFDLLLPLHELRGHNGCVRCSAFSVDSTLLATGDDNGEIRIWNVSNGELLHLCAPLSEEGAATHGGWVTDLCFSPDGKMLISAGGYIKWWNVVTGESSQTFYTNGTNLKKIHVSPDFKTYVTVDNLGILYILQTLE”, the protein production result is recorded as “failed”.

For “MDAKETSATDLKRPREEDDNGGAATMETENGDQKKEPACFSTVIPGWFSEMSPMWPGEAHSLKVEKVLFQGKSDYQDVIVFQSATYGKVLVLDGVIQLTERDECAYQEMITHLPLCSIPNPKKVLVIGGGDGGVLREVARHASIEQIDMCEIDKMVVDVSKQFFPDVAIGYEDPRVNLVIGDGVAFLKNAAEGSYDAVIVDSSDPIGPAKELFEKPFFQSVARALRPGGVVCTQAESLWLHMDIIEDIVSNCREIFKGSVNYAWTSVPTYPSGVIGFMLCSTEGPDVDFKHPLNPIDESSSKSNGPLKFYNAEIHSAAFCLPSFAKKVIESKAN”, the protein production result is on record as “failed”.

For “MDALIMAGGKGTRMGGVEKPLIKLCGRCLIDYVVSPLLKSKVNNIFIATSPNTPKTKEYINSAYKDYKNIVVIDTSGKGYIEDLNECIGYFSEPFLVVSSDLINLKSKIINSIVDYFYCIKAKTPDVEALAVMIPKEKYPNPSIDFNGLVPAGINVVSPKHGYQKEEIMVIDELIFNINTKDDLKLAEMLLKKDGL”, the protein production result is “failed”.

For “MDANEKKEVIKKRFQEIAMSGGTCCSGGGCCGDSSSSDISRAIGYSEADIEAVPDANMGLGCGNPASIAELKPGDIVLDLGSGAGFDCFLAAQKVGNSGKVIGVDMTPEMVEKVQANARKYGYSNVEFRQGDIEALPVEDSSVDVIISNCVINLAPDKEKVFREAFRVLKLGGRLYISDLVLLDELPEDLKNDRDLLAGCVAGAVLKEEYLKLLKRAGFSVEILAEDPDISKSQYKGLPVESLKLKAWVLEHHHHHH”, the protein production result is given as “not failed”.

Consider “MDAVVVLCYLLLALPTIIPSVVDGKWLVVAILLLIAIALFFRRPFPLQVVLAVSLLEIAATILNPWGSNVSAGLWFALYAVASLRKRALALVVFAVASLPLSLLYLFMWTSPSEMDNLQDVPENFHLINNIATAVTIMLSNLLATGIGISVRQRREHEAEIAAWAARTTQLGKVTERNRIAREMHDVVAHSLTVMISLSDGAAVVVKKDPERAGDVLGELSRTGRAALADMRRVLGVLRDDSGRPAPLTPLESGQNLAKLLDGFRTAGLPLHYAHTGPGLPADPAFELTVYRIVQESLTNVLRYGRSLSRVDVQVARDGDLVTIDVLDDGRGTREGGSESVGSLGTGQGIAGMNERAGIYAGIVTAGPGKRGGWAVHAELRWNGEKGES”, for which the protein production result is on record as “failed”.

With “MDCYLNAANSFARILDEYQTYNSLVVAFDFDDTVYDFHKKGRLYADVVTLLRDLKKINCHLICWTGQEDLTFVKNYLMENNIPFDDINENPPFHVSSSKKVYANVYLDDRAGLKQVFGELTQLLQHESIRIKSV”, the protein production result is on record as “failed”.

“MDDDMDIQQSYPFTVEVMPVPNKVVKGQTVEIRCELKKEGDFSGTLYTIRYFQFEGEGSLKMDNGITFLPNDRYLLENEKFRLYYTAAGDEAHNFIVVVEDNFSNSYELEFDFNNRNVKDDDLTIVPIGNFSPLLKLEHHHHHH”: the protein production entry is recorded as “failed”.

Turning to “MDDGTGAKRTKATVLQRVSSVLNADAHDATALDGGEVGSVYRVSFHDRPDVAVKVDDSPLGIEAAMLQSLDRDTPLPVPEVLHVEPELLVLSFIRGDGRFDERAERDLARHVAALHDTSADVFGFPFDTLSGPFSQSNPWTDSWIDFFRAQRLLPFATAARNEGALPAGEFDRVQRLAETLDARLVEPATPSLLHGDIHPGNAVVADGTVRAVLDPAIYFGHAEVDLAYVDRLDSIGAAFYDEYRQHRDISAGYFEERRDVYVAFHALENVRFFGEDELPRLERALDRLGM”, the protein production entry is “failed”.

For “MDDIDSLILIGVLIALTAFFVASEFAIVRVRRSRIDQLITEGNKRAILARRVITDLDEYLSASQLGITLTSIGLGVLGEPAFERLLHPLFEPLGLPDSVSHAVSFAVAYGLITFLHVVVGELAPKTVAIQKAEQLTLLIAGPLRLFYLLLFPFIWILNGSARLLCGMFGLKPASEHDGSHSEEELRMLLSESLKNGEINPSEYKYVNKIFEFDNRIAKEIMIPRKEMAAVSTEMTMAEMLEVMLKEKYTRWPVTDGDKDSVLGLVNTKHLFSDLLFMTEEERMKMTIHPYVRPVIEVIETIPVHDLLIKMQRERIHMAILSDEYGGTSGLVTTEDILEEIVGEIRDEFDEDEQPLIQKLGDGHYVMDGKVRIDQVNSLLGASIQEDVDTIGGLILKENIDIEAGESIRIGSYTIKVLKMDGRLIKQIDIKEEAGNTTGITAHHKLPLPEPVMLNSATLSEK”, the protein production result was “failed”.

“MDDLTNLAARLRLLEDREEIRELIARYGPLADSGDAEALSELWVEDGEYAVVGFATAKGRAAIAALIDGQTHRALMADGCAHFLGPATVTVEGDTATARCHSVVFRCVSGTFGSHRVSANRWTFRRTPAGWRAVRRENALLDGSAAARALLQFR”: the protein production entry is “not failed”.

Take “MDDQSGDQMRPELTMPPAEAEALRMAYEEAEVILEYGSGGSTVVAAELPGKHVTSVESDRAWARMMKAWLAANPPAEGTEVNIVWTDIGPTGDWGHPVSDAKWRSYPDYPLAVWRTEGFRHPDVVLVDGRFRVGCALATAFSITRPVTLLFDDYSQRRWQHQVEEFLGAPLMIGRLAAFQVEPQPIPPGSLMQLIRTMTSP”: the protein production entry is “not failed”.

Regarding “MDDVKDKLKGFMKKVNLSSSSGKFKGQGRVLGSSSSSSAPPVNPIQNRFNSSQAPNPTPRPKPNPNPLPEKPLSSSDQKISGSTRNPDHDPVRAPQDGFDPYGAFITSSNRSQNGYSLSMFECPICKNPFTSEEEVSVHVESCLGDTNGDESSFEKDNNDNDKSEMEKLVVVYLSGKPSESSIDVLLRLFKNIVKEPENAKFRKVRMSNAKIKEAIGDVAGGVELLELVGFELKEENDEIWAVMDVPSEEQSILINKVVGYLEKRKTESSGSSAQVMEPVAPKKIDRENGCFLVQIRVFFSVSENVASRIEVPDSFYSLSADEIKREADLRRKKIAESQLLIPRSYKEKQAKAARKRYKRSMIRVQFPDGVVLQGVFAPWEPTFALYEFVSSALKEPSLQFELLDPVLVKRRVIPHTPAPGQKPITLEDEELVPSALIRFRPIETDSLVFTGLRNELLEISEPLS”, the protein production entry is reported as “failed”.

With “MDEDGFSQCSKHFSKRGYFSGGGVCPFCLHERLSSLCPDCAHDLPCSCSSRAAVSFSPSSSSSSSSFSIFAGDISFNISGVGSVGRVASLIECEPAFRRSKSMAIPIKPDSVIDSGLDHGRSKKTSSFWRIFMGNRGDTKPAIMKKSRSVAVAGEFGFSPVPVPATGKGKGWNFPSPIKVFRQSRVSKMIFQQRSPLYRG”, the protein production entry was “failed”.
